The target in assay [1] is T1, CD40 on HEK293-CD40 cells.
T1 construct: whole, on cells
Put plainly: binding to HEK293-CD40 cells.

Assay [2] concerns the target T2, human CD40 (hCD40) (human, UniProt P25942 21-193). The experiment in a line: ELISA blocking of hCD40/hCD40L binding.
The target in assay [3] is T1, CD40 on HEK293-CD40 cells. The experiment in a line: binding to HEK293-CD40 cells. The source holds these as a separate data set.
For assay [4], the target named is T2, human CD40 (hCD40). The experiment in a line: ELISA blocking of hCD40/hCD40L binding. This is another data set of the same source.

Like-named read-outs stand apart in the source and are kept apart here.

T1 sequence (P25942 21-277): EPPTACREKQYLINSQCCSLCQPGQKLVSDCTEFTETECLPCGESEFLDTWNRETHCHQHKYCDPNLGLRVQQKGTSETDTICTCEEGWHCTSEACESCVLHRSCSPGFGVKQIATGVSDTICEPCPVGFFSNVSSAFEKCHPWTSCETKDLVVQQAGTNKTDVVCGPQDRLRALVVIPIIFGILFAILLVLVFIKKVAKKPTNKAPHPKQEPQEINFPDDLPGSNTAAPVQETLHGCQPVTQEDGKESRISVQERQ
T2 sequence (P25942 21-193 limits assumed): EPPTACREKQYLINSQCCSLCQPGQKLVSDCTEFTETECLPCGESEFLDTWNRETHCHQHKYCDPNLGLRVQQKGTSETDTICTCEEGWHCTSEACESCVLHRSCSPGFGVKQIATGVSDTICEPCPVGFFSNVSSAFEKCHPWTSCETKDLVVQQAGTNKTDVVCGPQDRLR

B1: human-murine chimeric antibody 9E5-C (antibody, IgG1, V domains shown)
VH: QVQLQQPGADLVKPGASVKMSCKASGYILTTYWITWVKQRPGQGLEWIGDIHPGSGSTKYNEKFKSKATLTVDTSSSTAYMQLTRLSSEDSAVYYCARRDYWGQGTTLTVSS
VL: DVLMTQSPLSLPVSLGDQASISCRSSQNIVNSQGNTYLEWYLQKPGESPKLLIYKVTNRFSGVPDRFSGSGSGTDFTLKISRVEAEDLGVYYCFQASLVPWTFGGGTKLEIK
notes: also called 9E5 chimeric antibody
What is called EC50 is the concentration needed to bring the measured effect to its halfway point. Read a low EC50 as an effect from little substance. For orientation: IC50 means the midpoint of a concentration-inhibition curve. Low readings indicate greater potency, high ones weaker potency. For the molecule B1, the response in assay [1] was half-maximal at 0.0333 µg/mL (EC50). The molecule also gave an IC50 with human CD40 (hCD40) [2] of 0.122 µg/mL.

B2: humanized antibody hu9E5 (H1c heavy chain and L1a light chain) (antibody, human IgG1, kappa, V domains shown)
VH: QVQLVQSGAEVKKPGASVKVSCKASGYILTTYWITWVRQAPGQGLEWMGDIHPGSGSTKYNEKFKSRVTLTVDTSISTAYMELSRLRSEDTAVYYCARRDYWGQGTTVTVSS
VL: DIVMTQSPLSLPVTPGEPASISCRSSQNIVNSQGNTYLEWYLQKPGQSPQLLIYKVTNRFSGVPDRFSGSGSGTDFTLKISRVEAEDVGVYYCFQASLVPWTFGGGTKVEIKR
notes: also called Hu9E5-25
B2 showed a 50% effective concentration (EC50) in assay [3] of 0.14 µg/mL. In the assay with human CD40 (hCD40) [4], this molecule returned an IC50 of 0.308 µg/mL.

The values are drawn from patent US20240254248A1 (JIANGSU HENGRUI MEDICINE, published 2024).
